Experiments:
[1] = test system: intracellular calcium release in NBL cells; test: ATP-stimulated calcium release in NBL cells (Fura2 imaging); format: cell-based, human; conditions: 1 μM ATP, vs empty vector
Method: Pharmacodynamics—Bioassay of Calcium Release: Fifteen mm glass coverslips (cat #72228 Electron Microscopy Sciences, Hatfield, PA) were coated with poly-D-Lysine (Sigma) followed by Laminin and 1×10^5 cells were seeded on each coverslip. Twenty-four hrs later, cells were transfected with AAV2-ITR, AAV2-V5-Car10, or AAV2-V5-CA10 vectors as previously described. In embodiments wherein AAV2 is not employed, other expression vectors (including viral vectors) are used. Fura-2AM (cat #F1221 ThermoFisher scientific, Waltham, MA) was dissolved in DMSO (50 μg in 50 μl) and 1% pluronic acid-127 (cat #P2443 Sigma, St Louis, MO) as the stock solution. Forty eight hrs after seeding, cells were loaded with 2 μM Fura-2AM dye for 45 min at room temperature in the dark in a standard Ca+2 buffer solution containing: 125 mM NaCl, 2 mM MgCl, 4.5 mM KCl, 10 glucose, 20 mM HEPES, 2 mM CaCl2, pH 7.4.25. Following dye loading, coverslips were washed with Ca^+2 buffer solution. […] Regions of interest over the field of view were selected and the mean pixels intensity at each frame was measured. Data was plotted as ratio fluorescence intensity versus time and subsequently converted to a relative scale. […]

[2] = target: ITPR1 (Homo sapiens, UniProt Q14643); test: NGF-induced intracellular calcium release / ITPR1 activation in NBL cells; format: cell-based; set-up: endogenous in cells
ITPR1, sequence (Q14643 whole entry): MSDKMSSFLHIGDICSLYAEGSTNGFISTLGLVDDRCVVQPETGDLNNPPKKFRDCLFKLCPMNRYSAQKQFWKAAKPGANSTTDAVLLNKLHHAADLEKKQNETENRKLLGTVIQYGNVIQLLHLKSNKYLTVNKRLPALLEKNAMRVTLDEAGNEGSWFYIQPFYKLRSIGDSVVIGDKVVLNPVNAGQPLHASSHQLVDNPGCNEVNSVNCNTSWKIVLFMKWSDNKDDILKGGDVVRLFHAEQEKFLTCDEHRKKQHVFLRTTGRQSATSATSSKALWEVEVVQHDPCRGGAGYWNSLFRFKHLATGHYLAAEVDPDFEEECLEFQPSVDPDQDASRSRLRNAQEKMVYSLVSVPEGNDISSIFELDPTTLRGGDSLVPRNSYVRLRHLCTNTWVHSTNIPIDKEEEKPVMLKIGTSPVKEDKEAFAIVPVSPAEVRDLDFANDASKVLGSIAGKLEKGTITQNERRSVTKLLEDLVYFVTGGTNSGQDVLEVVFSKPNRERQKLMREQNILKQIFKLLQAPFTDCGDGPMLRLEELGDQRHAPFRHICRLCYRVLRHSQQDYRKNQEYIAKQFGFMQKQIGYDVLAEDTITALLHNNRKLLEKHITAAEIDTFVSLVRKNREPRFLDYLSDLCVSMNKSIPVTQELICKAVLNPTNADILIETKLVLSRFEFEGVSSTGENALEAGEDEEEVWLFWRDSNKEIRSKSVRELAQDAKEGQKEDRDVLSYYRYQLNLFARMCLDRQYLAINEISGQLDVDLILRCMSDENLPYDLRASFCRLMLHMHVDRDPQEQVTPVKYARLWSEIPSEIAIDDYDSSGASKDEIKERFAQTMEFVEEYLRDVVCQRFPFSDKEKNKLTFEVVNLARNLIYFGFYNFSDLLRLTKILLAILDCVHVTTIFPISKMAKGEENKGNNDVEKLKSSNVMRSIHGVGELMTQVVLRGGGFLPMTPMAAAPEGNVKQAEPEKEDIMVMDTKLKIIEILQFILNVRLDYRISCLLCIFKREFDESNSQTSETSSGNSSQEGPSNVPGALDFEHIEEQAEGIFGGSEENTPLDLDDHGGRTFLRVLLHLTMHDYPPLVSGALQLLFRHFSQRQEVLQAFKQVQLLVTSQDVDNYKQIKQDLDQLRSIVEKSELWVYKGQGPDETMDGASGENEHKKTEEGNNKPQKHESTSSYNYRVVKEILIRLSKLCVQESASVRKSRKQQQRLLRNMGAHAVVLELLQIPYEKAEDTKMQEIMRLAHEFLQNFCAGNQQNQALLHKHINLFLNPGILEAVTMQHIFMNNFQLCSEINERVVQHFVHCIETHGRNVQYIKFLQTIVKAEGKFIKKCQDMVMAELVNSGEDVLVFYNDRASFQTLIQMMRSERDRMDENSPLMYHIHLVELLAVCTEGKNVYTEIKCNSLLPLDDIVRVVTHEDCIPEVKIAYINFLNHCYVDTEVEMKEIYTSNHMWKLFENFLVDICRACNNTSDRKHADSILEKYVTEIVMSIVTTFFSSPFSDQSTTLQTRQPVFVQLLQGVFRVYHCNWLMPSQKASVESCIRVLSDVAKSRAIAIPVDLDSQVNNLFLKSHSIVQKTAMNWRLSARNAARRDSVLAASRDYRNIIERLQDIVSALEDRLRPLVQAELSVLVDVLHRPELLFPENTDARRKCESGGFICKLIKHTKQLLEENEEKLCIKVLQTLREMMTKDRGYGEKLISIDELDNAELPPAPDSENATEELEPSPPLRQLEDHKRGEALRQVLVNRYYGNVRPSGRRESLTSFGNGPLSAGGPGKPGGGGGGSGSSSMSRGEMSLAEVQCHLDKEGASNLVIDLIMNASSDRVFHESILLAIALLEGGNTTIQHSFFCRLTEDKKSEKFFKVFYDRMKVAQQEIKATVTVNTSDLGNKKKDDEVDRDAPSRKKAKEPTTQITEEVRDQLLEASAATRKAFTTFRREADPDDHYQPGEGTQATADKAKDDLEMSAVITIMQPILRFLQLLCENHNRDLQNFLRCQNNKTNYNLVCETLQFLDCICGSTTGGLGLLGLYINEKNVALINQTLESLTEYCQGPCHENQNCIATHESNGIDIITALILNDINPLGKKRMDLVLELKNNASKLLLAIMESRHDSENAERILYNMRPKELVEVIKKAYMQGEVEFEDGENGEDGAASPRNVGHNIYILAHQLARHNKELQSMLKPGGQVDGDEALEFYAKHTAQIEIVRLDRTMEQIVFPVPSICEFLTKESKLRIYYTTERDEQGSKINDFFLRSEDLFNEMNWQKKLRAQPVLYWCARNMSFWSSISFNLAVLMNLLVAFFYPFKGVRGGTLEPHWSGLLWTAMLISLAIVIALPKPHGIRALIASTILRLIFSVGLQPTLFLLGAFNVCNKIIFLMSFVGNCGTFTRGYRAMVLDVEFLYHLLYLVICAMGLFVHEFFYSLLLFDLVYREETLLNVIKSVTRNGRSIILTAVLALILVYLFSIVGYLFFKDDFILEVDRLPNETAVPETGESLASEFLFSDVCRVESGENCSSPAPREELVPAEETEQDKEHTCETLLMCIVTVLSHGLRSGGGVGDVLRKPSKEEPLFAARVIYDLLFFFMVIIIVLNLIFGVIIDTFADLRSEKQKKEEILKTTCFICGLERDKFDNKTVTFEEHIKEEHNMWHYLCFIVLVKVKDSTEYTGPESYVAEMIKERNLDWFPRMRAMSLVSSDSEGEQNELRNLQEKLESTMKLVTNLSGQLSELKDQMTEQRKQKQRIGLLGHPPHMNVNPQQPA

- NGF-induced intracellular calcium release ([2]; NBL cells): nearly completely
B1: CA8-201: wildtype full length CA8 transcript/peptide (protein, UniProt P35219 1-290, looked up)
chain: MADLSFIEDTVAFPEKEEDEEEEEEGVEWGYEEGVEWGLVFPDANGEYQSPINLNSREARYDPSLLDVRLSPNYVVCRDCEVTNDGHTIQVILKSKSVLSGGPLPQGHEFELYEVRFHWGRENQRGSEHTVNFKAFPMELHLIHWNSTLFGSIDEAVGKPHGIAIIALFVQIGKEHVGLKAVTEILQDIQYKGKSKTIPCFNPNTLLPDPLLRDYWVYEGSLTIPPCSEGVTWILFRYPLTISQLQIEEFRRLRTHVKGAELVEGCDGILGDNFRPTQPLSDRVIRAAFQ
modifications: full-length V5 tag
notes: wildtype full length CA8 transcript/peptide
- ATP-stimulated calcium release [1]: able to inhibit Ca^2+ release
- NGF-induced ITPR1 activation (pITPR1) [2]: inhibits NGF-induced ITPR1 activation (pITPR1)

— patent US11911450B2, “Method for managing pain” (UNIVERSITY OF MIAMI, priority 2017, dated 2024)
